Measurements published in paper doi:10.1101/2025.09.29.679228.
Like-named read-outs stand apart in the source and are kept apart here.

Experiments:
Experiment in all cases: MST
[1] = target: EphA2 ICRΔSAM, kinase-dead (D739N) (human)
[2] = target: EphA2 ICRΔSAM, wildtype, phosphorylated (human)
[3] = target: EphA2 intracellular region (ICR), kinase-dead (D739N) (human) (UniProt P29317)
[4] = target: EphA2 intracellular region (ICR), wildtype, phosphorylated (human) (UniProt P29317)
[5] = target: EphA2 ICRΔSAM, wildtype, phosphorylated (human); remark: listed apart in the source
Target sequence in this assay (P29317 899-973, stated change not applied): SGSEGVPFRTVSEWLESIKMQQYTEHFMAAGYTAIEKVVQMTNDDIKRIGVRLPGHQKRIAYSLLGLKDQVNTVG

Molecule: EphA2 ICRΔSAM, kinase-dead (D739N) (domain or fragment)
- Kd [1]: 1 µM

Molecule: EphA2 ICRΔSAM, wildtype, phosphorylated (domain or fragment)
- Kd [2]: 5.4 µM

Molecule: EphA2 intracellular region (ICR), kinase-dead (D739N) (from UniProt P29317 559-976) (domain or fragment)
- Kd [3]: 1.3 µM

Molecule: EphA2 intracellular region (ICR), wildtype, phosphorylated (from UniProt P29317 559-976) (domain or fragment)
- Kd [4]: 15 µM

B1: SHIP2 SAM domain (isolated) (domain or fragment)
chain: GMSAWLRAIGLERYEEGLVHNGWDDLEFLSDITEEDLEEAGVQDPAHKRLLLDTLQLSK
- Kd [5]: 7.5 µM
